Data from patent US20060104978A1, “Methods and compositions for PDGF-C activation and inhibition” (LUDWIG INSTITUTE FOR CANCER RESEARCH, priority 2003, published 2006).

B1: CUB domain: free CUB domain of PDGF-C; recombinant His6-tagged (residues 23-163) or c-myc-tagged (residues 1 to 165) (protein)
chain: ESNLSSKFQFSSNKEQNGVQDPQHERIITVSTNGSIHSPRFPHTYPRNTVLVWRLVAVEENVWIQLTFDERFGLEDPEDDICKYDFVEVEEPSDGTILGRWCGSGTVPGKQISKGNQIRIRFVSDEYFPSEPGFCIHYNIVHHHHHH
B2: activated PDGF-CC: activated PDGF-CC protein, growth factor without CUB domains (protein)
chain: GRKSRVVDLNLLTEEVRLYSCTPRNFSVSIREELKRTDTIFWPGCLLVKRCGGNCACCLHNCNECQCVPSKVTKKYHEVLQLRPKTGVRGLHKSLTDVALEHHEECDCVCRGSTGG

Tests used:
tPA [1] = test: Cotransfection assay in COS-1 cells: PDGF-CC forms and mutants coexpressed with tPA; assay type: cell-based, human; conditions: over-expression of free CUB domain (CUBc-myc) with full-length PDGF-C and tPA in COS-1 cells
Source text: The structural requirements for recognition of full-length PDGF-CC as a substrate for tPA were mapped by analysis of several mutated forms of PDGF-CC using the co-transfection assay. The mutants of PDGF-CC included a chimeric form of PDGF-C carrying the CUB domain from PDGF-D and the hinge region and growth factor domain of PDGF-C (mutant PDCUBPC), and several truncation mutants lacking the CUB domain and increasing parts of the hinge region (schematically illustratrated in FIG. 6A). All mutants were properly expressed in transfected COS-1 cells, formed disulfide-linked dimers (data not shown), and were efficiently secreted, except truncation mutant Δ190 that was expressed at a lower level in the conditioned medium (FIG. 6B).
A conserved site of four amino acids containing three basic amino-acid residues (amino-acid residues -R-K-S-R-) was previously identified as a potential site for proteolytic activation of latent PDGF-CC (Li et al, 2000). […]
To test the endogenous expression of PDGF-CC, subconfluent AG1523 cells and primary fibroblast cultures were cultured in serum-free DMEM overnight. […] In the case of the primary cultures, total protein concentration was measured and normalized (Bradford, 1976). […] PDGF-C and PDGF-D were detected by immunoblotting using affinity-purified polyclonal rabbit antibodies against PDGF-C (Li et al, 2000) and PDGF-D (Bergsten et al, 2001), respectively. […]

tPA [2] = test: Ni-NTA pull-down of purified tPA by His6-tagged recombinant proteins; assay type: binding, human; conditions: Ni-NTA beads coated with His6-tagged protein, 1 μg purified tPA, 2 hours room temperature, eluted with imidazole
Description: The possibility of a direct protein-protein interaction between tPA and latent PDGF-CC was explored by developing a pull-down assay. Ni-NTA beads were allowed to bind recombinant His6-tagged latent PDGF-CC or PDGF-DD, and purified tPA was added and incubated. Following extensive washings, bound proteins were subsequently eluted with an imidazole-containing buffer, and the eluates were analyzed by immunoblotting using specific antibodies.
To determine a direct protein-protein interaction between tPA and PDGF-CC, His6-tagged recombinant protein species were bound to Ni-NTA-agarose (Qiagen) and then incubated with 1 μg of purified tPA for 2 hours at room temperature. Uncoated and PDGF-DD coated Ni-NTA beads were used as controls. The beads were washed thoroughly, and His6-tagged proteins were specifically eluted with 400 mM imidazole. Eluted proteins were analyzed by SDS-PAGE under reducing conditions and immunoblotted with antibodies against human tPA (see above). The membranes were subsequently stripped and reprobed with specific antibodies.

PDGFR-α = target: T1, PDGFR-α (Mus musculus, UniProt P26618); test: PDGFR-α tyrosine phosphorylation in primary fibroblasts; assay type: cell-based; conditions: 100 ng/ml activated PDGF-CC protein
T1 construct: endogenous in cells; host or cells: primary mouse kidney and lung fibroblasts
Description: It is known that constitutive activation of PDGFRs by PDGFs leads to receptor desensitization (Heldin and Westermark, 1999), and therefore it was investigated whether the differences observed in growth between the wild-type and tPA-deficient fibroblasts upon PDGF-CC treatment were due to differential activation of PDGFR-α. Recombinant PDGF-CC protein was applied onto the primary fibroblasts and receptor activation was measured as induction of PDGFR-α tyrosine phosphorylation (FIG. 7D, upper panel).
To monitor growth factor-induced tyrosine phosphorylation of PDGFR-α, serum-starved PAE cells stably expressing human PDGFR-α were incubated for 120 min on ice with conditioned medium from COS-1 cells transfected with full-length PDGF-C in the absence or presence of tPA. Alternatively, primary wild-type and tPA-deficient fibroblasts were stimulated with 100 ng/ml activated PDGF-CC protein. The cells were lysed as described previously (Li et al, 2000) and PDGFR-α was immunoprecipitated using a specific antiserum (Eriksson et al, 1992). Precipitated proteins were separated by SDS-PAGE under reducing conditions. Tyrosinephosphorylated receptors were detected by immunoblotting using an antiphosphotyrosine antibody (PY99, Santa Cruz). The membranes were stripped and reprobed using a polyclonal antibody against the C-terminal of the PDGFRs (CED) to detect receptor expression levels.

[3] = cornea pocket model; cited from earlier work
[4] = tested on: tPA-deficient fibroblasts; test: WST-1 growth assay of primary fibroblasts in serum-free medium; assay type: cell-based, mouse; conditions: 50 ng/ml added to serum-free culture medium, 24 hours
Description: It was observed that primary fibroblasts derived from tPA-deficient mice grew more slowly in culture than fibroblasts derived from wild-type animals, raising the possibility that activation of latent PDGF-CC by tPA generated autocrine and paracrine growth stimulatory loops for primary fibroblasts in culture. To analyze this effect, isolated wild-type and tPA-deficient fibroblasts were serum-starved overnight, and the growth of the cells during the next 24 hours was monitored using an enzyme-based viability assay (see Example 8, Materials and Methods).
(§1) To monitor cell growth, both the cell proliferation reagent WST-1 (Roche) and BrdU (Sigma) were used. A total of 0.4×10^4 (WST-1) or 1×10^4 (BrdU) wild-type and tPA-deficient fibroblasts were seeded in triplicate-hexaplicate, and after attachment they were serum-starved overnight. Serum-starved cells were counted (WST-1 seeding control) and alternatively incubated for 24 hours in serum-free medium supplemented with 1 mg/ml BSA, and 50 μM BrdU in the BrdU experiment, in the absence or presence of 50 ng/ml activated PDGF-CC or tPA protein (#116, American Diagnostica Inc.). Upon counting, WST-1 reagent was added and measured according to the manufacturer's protocol using an ELISA reader. […] Quantification of the BrdU-positive cells was performed by counting all cells along the vertical and horizontal diameters of all wells.

[5] = tested on: wild-type and tPA-deficient fibroblasts; test: BrdU incorporation in primary fibroblasts; assay type: cell-based, mouse; conditions: 50 ng/ml, 24 hours BrdU labeling
Description: Cell nuclei were visualized with 4′,6-diamidine-2′-phenylindole dihydrochloride (DAPI), and BrdU-labeled cells were determined by immunofluorescence using antibodies to BrdU (FIG. 7B).
as §1, with “reader. In the BrdU experiment, the cells were fixed in 4% paraformaldehyde in PBS for 30 min at room temperature and the DNA was denatured in 2M HCl for 20 min at room temperature and then blocked in 0.5% BSA, 0.5% Tween, and 10% goat serum in PBS.” for “reader.”

tPA, sequence (P00750 36-562): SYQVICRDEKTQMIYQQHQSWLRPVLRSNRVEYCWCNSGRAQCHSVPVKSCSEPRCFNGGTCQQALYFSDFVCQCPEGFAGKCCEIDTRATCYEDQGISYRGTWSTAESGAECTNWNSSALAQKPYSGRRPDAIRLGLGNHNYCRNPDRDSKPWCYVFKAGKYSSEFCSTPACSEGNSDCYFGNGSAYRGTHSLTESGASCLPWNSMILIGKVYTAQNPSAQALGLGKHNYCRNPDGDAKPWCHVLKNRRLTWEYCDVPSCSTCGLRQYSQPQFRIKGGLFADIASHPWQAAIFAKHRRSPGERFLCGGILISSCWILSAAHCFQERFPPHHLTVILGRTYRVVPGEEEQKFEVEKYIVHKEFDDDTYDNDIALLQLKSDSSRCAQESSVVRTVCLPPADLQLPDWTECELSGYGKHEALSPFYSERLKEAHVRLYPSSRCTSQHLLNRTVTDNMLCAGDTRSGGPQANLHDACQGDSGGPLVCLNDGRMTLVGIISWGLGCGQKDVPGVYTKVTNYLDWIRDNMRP
T1 sequence (P26618 25-1089): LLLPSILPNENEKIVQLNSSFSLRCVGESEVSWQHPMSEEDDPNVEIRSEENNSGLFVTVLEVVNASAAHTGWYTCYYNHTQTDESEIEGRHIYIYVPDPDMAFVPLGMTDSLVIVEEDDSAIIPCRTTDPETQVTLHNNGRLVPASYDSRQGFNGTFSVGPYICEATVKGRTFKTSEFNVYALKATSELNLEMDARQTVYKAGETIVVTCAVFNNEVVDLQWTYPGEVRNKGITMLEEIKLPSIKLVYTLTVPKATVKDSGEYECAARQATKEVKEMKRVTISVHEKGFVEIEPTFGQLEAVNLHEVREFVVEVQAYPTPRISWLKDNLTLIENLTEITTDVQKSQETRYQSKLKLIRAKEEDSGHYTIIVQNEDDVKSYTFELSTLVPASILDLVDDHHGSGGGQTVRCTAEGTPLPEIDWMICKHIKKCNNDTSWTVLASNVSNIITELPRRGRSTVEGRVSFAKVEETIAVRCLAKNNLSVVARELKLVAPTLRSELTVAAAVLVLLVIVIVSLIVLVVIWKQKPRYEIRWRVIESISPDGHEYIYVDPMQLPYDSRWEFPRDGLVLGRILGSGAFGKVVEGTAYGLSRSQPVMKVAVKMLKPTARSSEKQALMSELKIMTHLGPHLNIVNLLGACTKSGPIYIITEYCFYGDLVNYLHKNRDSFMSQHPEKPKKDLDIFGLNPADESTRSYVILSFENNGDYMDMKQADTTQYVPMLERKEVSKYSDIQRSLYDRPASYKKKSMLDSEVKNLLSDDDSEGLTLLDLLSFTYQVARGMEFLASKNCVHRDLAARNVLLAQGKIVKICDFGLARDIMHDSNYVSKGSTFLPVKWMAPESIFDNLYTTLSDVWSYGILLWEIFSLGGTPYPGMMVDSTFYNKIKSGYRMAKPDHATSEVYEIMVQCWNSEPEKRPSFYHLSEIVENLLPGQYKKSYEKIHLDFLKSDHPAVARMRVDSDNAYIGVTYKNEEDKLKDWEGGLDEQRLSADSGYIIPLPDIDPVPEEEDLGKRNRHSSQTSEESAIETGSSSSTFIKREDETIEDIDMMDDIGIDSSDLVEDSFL

Molecule	competition for tPA-mediated processing of latent PDGF-CC (tPA [1])	binding of tPA in pull-down (tPA [2])	induction of PDGFR-α tyrosine phosphorylation, tPA-deficient versus wild-type fibroblasts (PDGFR-α)	neoangiogenesis [3]	rescue of growth of tPA-deficient fibroblasts [4]	BrdU incorporation in tPA-deficient cells ([5]; serum-starved tPA-deficient fibroblasts)	BrdU incorporation in wild-type cells ([5]; serum-starved wild-type fibroblasts)
B1	efficiently competed for the interaction and processing of latent PDGF-CC by tPA	both domains were able to interact with tPA	–	–	–	–	–
B2	–	–	more pronounced in the tPA-deficient cells as compared to wild type	strong inducer of neoangiogenesis	allowed the cells to grow similar to the wild-type fibroblasts	strongly stimulated BrdU incorporation in the tPA-deficient cells	had less effect on wild-type cells
